Key:
[1] = target: T1, human Aβ peptide (1-40) biotinylated at the C terminus (human, UniProt P05067 672-711, biotinylated at the C-terminus); experiment: Aβ binding ELISA, human Aβ (1-40) biotinylated at the C terminus
T1 construct: domain: β-amyloid peptide (1-40); Numbers 1-40 count on the β-amyloid peptide, not on APP; also called beta-amyloid 1-40 peptide (biotinylated at the C-terminus); streptavidin-captured beta-amyloid (1-40)

[2] = target: T1, human Aβ peptide (1-40) biotinylated at …; experiment: as above; remark: listed apart in the source
[3] = target: T1, human Aβ peptide (1-40) biotinylated at …; experiment: as above; remark: listed apart in the source
[4] = target: T1, human Aβ peptide (1-40) biotinylated at …; experiment: SPR Biacore 3000, Method A(i): C-terminally biotinylated β-amyloid 1-40 on streptavidin chip, antibody as analyte; Run 1
Experimental: (§1) (i) Briefly, <20 resonance units of beta-amyloid 1-40 peptide (biotinylated at the C-terminus) were captured on a streptavidin biosensor chip (as used for Table 10A). The antibodies were diluted down in HBS-EP buffer and passed over the streptavidin/beta-amyloid surface at concentrations ranging from 0.001 nM-8 nM (for Table 10A). Two separate runs were carried out; each run was carried out on a new streptavidin/beta-amyloid surface. Runs 1 and 2 were essentially the same though there were some differences in the parameters used; Run 1 was carried out using a chip surface on which 16 RU's of beta-amyloid were captured, and antibody concentrations of 0.001 nM-8 nM were used, an association time of 4 minutes and a dissociation time of 20 minutes were used at a flow rate of 50 μl per minute. For Run 2, less than 10 RU's of beta-amyloid were captured and antibody concentrations of 0.003125 nM-8 nM were used. The flow rate and association times were the same as Run 1, however the dissociation time was reduced to 15 minutes. (ii) Beta amyloid (1-40) and (1-42) were amine-coupled on different surfaces of a CM5 biosensor chip to a level of <20 resonance units (as used for Table 10B). The antibodies were diluted down in HBS-EP buffer and passed over the biosensor/beta-amyloid surface at concentrations ranging from 1 nM-64 nM (as used for Table 10B).
(§2) In both methods, regeneration was via a pulse of 100 mM H₃PO₄, and for Table 10A data also followed by a pulse of 50 mM NaOH. […] All runs were double referenced against buffer blank injections. Analysis was carried out using the Biacore™ analysis software BIAevaluation version 4.1.

[5] = target: T1, human Aβ peptide (1-40) biotinylated at …; experiment: SPR Biacore 3000, Method A(i): C-terminally biotinylated β-amyloid 1-40 on streptavidin chip, antibody as analyte; Run 2
Experimental: as §1, §2

[6] = target: T2, human Aβ peptide (length not stated) (human, UniProt P05067 672-711); experiment: competition ELISA, β-amyloid in solution pre-incubated with the antibody; competitor: immobilised mouse 2E7; Experiment 1
T2 construct: also called β-amyloid in solution
Experimental: (§3) 2) β-amyloid in solution; a constant concentration of β-amyloid was pre-incubated with a dilution series of humanised 2E7 antibody variants—the mixture including complexed and free amyloid was added for a short time to wells containing immobilised mouse 2E7 MAb. The amount of free β-amyloid that was still available for binding the immobilised parental 2E7 MAb was then detected.

[7] = target: T2, human Aβ peptide (length not stated); experiment: competition ELISA, β-amyloid in solution pre-incubated with the antibody; competitor: immobilised mouse 2E7; Experiment 2
Experimental: as §3

[8] = target: T1, human Aβ peptide (1-40) biotinylated at …; experiment: competition ELISA, biotinylated human Aβ (1-40) on streptavidin plate; competitor: mouse 2E7 at constant concentration; Experiment 1
Experimental: (§4) Two types of competition ELISA were established in order to compare the Aβ binding activity of the three humanised variants compared to the 2E7 chimeric antibody. 1) Immobilised β-amyloid; biotinylated human Aβ peptide (1-40) was immobilized through Streptavidin on ELISA plates Mouse 2E7 antibody was added at a constant concentration along with a dilution series of 2E7-derived humanised variant antibodies. Bound mouse 2E7 MAb was then detected with anti-mouse IgG conjugate.

[9] = target: T1, human Aβ peptide (1-40) biotinylated at …; experiment: competition ELISA, biotinylated human Aβ (1-40) on streptavidin plate; competitor: mouse 2E7 at constant concentration; Experiment 2
Experimental: as §4

[10] = target: T1, human Aβ peptide (1-40) biotinylated at …; experiment: SPR Biacore 3000, Method A(i): C-terminally biotinylated β-amyloid 1-40 on streptavidin chip, antibody as analyte; Average(SD) of two runs
Experimental: as §1, §2

[11] = target: T1, human Aβ peptide (1-40) biotinylated at …; experiment: Aβ binding ELISA with culture supernatant, Aβ peptide (1-40)
[12] = target: T3, human beta-amyloid peptide (1-40) (human, UniProt P05067 672-711); experiment: SPR Biacore 3000, Method B: antibody captured, β-amyloid as analyte
T3 construct: domain: beta-amyloid peptide (1-40); Unlabelled peptide: amine-coupled to a CM5 chip (Method A(ii)) or in solution as analyte (Method B); also called beta-amyloid (1-40)
Experimental: (§5) In the second instance the assay was reversed, in that antibodies were first captured to a level of 1000-2500 resonance units on an anti-mouse IgG polyclonal antibody surface (for recombinant mouse 2E7 MAb) or a protein A surface (for humanized H2L1) of a CM5 biosensor chip. Freshly prepared beta-amyloid (1-40) or (1-42) was diluted down in HBS-EP buffer and passed over the captured-antibody surface at concentrations ranging from 4-500 nM (Table 10C and 10D).
as §2

[13] = target: T4, human beta-amyloid peptide (1-42) (human, UniProt P05067 672-713); experiment: as above
T4 construct: domain: beta-amyloid peptide (1-42); Unlabelled peptide: amine-coupled to a CM5 chip (Method A(ii)) or in solution as analyte (Method B); also called beta-amyloid (1-42)
Experimental: as §5, §2

T4 sequence (P05067 672-713 limits assumed): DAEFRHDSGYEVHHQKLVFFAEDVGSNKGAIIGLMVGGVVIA
T2 sequence (P05067 672-711): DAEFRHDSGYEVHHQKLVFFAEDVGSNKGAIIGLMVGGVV
T1 sequence (P05067 672-711 limits assumed): as the sequence (P05067 672-711) above
T3 sequence (P05067 672-711 limits assumed): as the sequence (P05067 672-711) above

Binder	EC50 [1] [µg/mL]	EC50 [2] [µg/mL]	EC50 [3] [µg/mL]	Kd [4] [nM]	Kd [5] [nM]	IC50 [6] [µg/mL]	IC50 [8] [µg/mL]	IC50 [9] [µg/mL]	Kd [10] [nM]	EC50 [11] [µg/mL]	other results
Humanised 2E7 variant H1L1 (antibody, human IgG1, kappa, V domains shown, Human IgG1 with L235A and G237A, human kappa; also called L1+H1) VH: EVQLVESGGGLVQPGGSLRLSCAASGFTFSDNGMAWVRQAPGKGLEWVSFISNLAYSIDYADTVTGRFTISRDNAKNSLYLQMNSLRAEDTAVYYCVSGTWFAYWGQGTLVTVSS VL: DIVMTQSPLSLPVTPGEPASISCRVSQSLLHSNGYTYLHWYLQKPGQSPQLLIYKVSNRFSGVPDRFSGSGSGTDFTLKISRVEAEDVGVYYCSQTRHVPYTFGGGTKVEIKR	0.035	0.051	0.047	0.095	0.0922	0.114	1.62	1.76	0.0936		IC50 [7]: 0.14 µg/mL
H2L1 Fab His, H2 heavy chain truncated at position 224 with a C-terminal 6x histidine tag including histidine at position 224 (Fab, V domains shown, Recombinant Fab from CHOK1 culture supernatant) VH: EVQLVESGGGLVQPGGSLRLSCAVSGFTFSDNGMAWVRQAPGKGLEWVSFISNLAYSIDYADTVTGRFTISRDNAKNSLYLQMNSLRAEDTAVYYCVSGTWFAYWGQGTLVTVSS VL: DIVMTQSPLSLPVTPGEPASISCRVSQSLLHSNGYTYLHWYLQKPGQSPQLLIYKVSNRFSGVPDRFSGSGSGTDFTLKISRVEAEDVGVYYCSQTRHVPYTFGGGTKVEIKR										0.227	
H2L1 Fab cys, H2 heavy chain truncated at the second cysteine in the hinge region at residue 226 (Fab, V domains shown, Recombinant Fab from CHOK1 culture supernatant; also called (b) H2L1 Fab cys) VH: EVQLVESGGGLVQPGGSLRLSCAVSGFTFSDNGMAWVRQAPGKGLEWVSFISNLAYSIDYADTVTGRFTISRDNAKNSLYLQMNSLRAEDTAVYYCVSGTWFAYWGQGTLVTVSS VL: DIVMTQSPLSLPVTPGEPASISCRVSQSLLHSNGYTYLHWYLQKPGQSPQLLIYKVSNRFSGVPDRFSGSGSGTDFTLKISRVEAEDVGVYYCSQTRHVPYTFGGGTKVEIKR										0.226	
H2L1 Fab, H2 heavy chain truncated at residue 224 of the hinge region (Fab, V domains shown, Recombinant Fab from CHOK1 culture supernatant; also called (a) H2L1 Fab) VH: EVQLVESGGGLVQPGGSLRLSCAVSGFTFSDNGMAWVRQAPGKGLEWVSFISNLAYSIDYADTVTGRFTISRDNAKNSLYLQMNSLRAEDTAVYYCVSGTWFAYWGQGTLVTVSS VL: DIVMTQSPLSLPVTPGEPASISCRVSQSLLHSNGYTYLHWYLQKPGQSPQLLIYKVSNRFSGVPDRFSGSGSGTDFTLKISRVEAEDVGVYYCSQTRHVPYTFGGGTKVEIKR										0.239	
Humanised 2E7 variant H3L1 (antibody, human IgG1, kappa, V domains shown, Human IgG1 with L235A and G237A, human kappa; also called L1+H3) VH: EVQLVESGGGLVQPGGSLRLSCAASGFTFSDNGMAWVRQAPGKGLEWISFISNLAYSIDYADTVTGRFTISRDNAKNSLYLQMNSLRAEDTAVYYCVSGTWFAYWGQGTLVTVSS VL: DIVMTQSPLSLPVTPGEPASISCRVSQSLLHSNGYTYLHWYLQKPGQSPQLLIYKVSNRFSGVPDRFSGSGSGTDFTLKISRVEAEDVGVYYCSQTRHVPYTFGGGTKVEIKR	0.044	0.055	0.04	0.076	0.0572	0.069	1.53	1.39	0.0666		IC50 [7]: 0.115 µg/mL
2F11, an identical sequence clone to mouse 2E7 MAb (antibody, V domains shown, Mouse antibody) VH: EVKLVESGGGLVQPGGSLKLSCAVSGFTFSDNGMAWVRQAPRKGPEWIAFISNLAYSIDYADTVTGRFTISRDNAKNTLYLEMSSLRSEDTAMYYCVSGTWFAYWGQGTLVTVSA VL: DVVLTQTPLSLPVSLGDQASISCRVSQSLLHSNGYTYLHWYLQKPGQSPKLLIYKVSNRFSGVPDRFSGSGSGTDFTLKISRVEAEDLGVYFCSQTRHVPYTFGGGTKLEIK											Kd [12]: 1.31 nM; koff [12]: 0.000392 s⁻¹; kon [12]: 299000 M⁻¹ s⁻¹; Kd [13]: 1.14 nM; koff [13]: 0.000274 s⁻¹; kon [13]: 239000 M⁻¹ s⁻¹
Chimeric 2E7 antibody (2E7c) (antibody, human IgG1, V domains shown, Parent murine V regions on human IgG1 (L235A, G237A) and human C kappa; also called 2E7c Chimera; not shown: human IgG1 heavy chain constant region, Fc mutated (L235A, G237A); human C kappa constant region) VH: EVKLVESGGGLVQPGGSLKLSCAVSGFTFSDNGMAWVRQAPRKGPEWIAFISNLAYSIDYADTVTGRFTISRDNAKNTLYLEMSSLRSEDTAMYYCVSGTWFAYWGQGTLVTVSA VL: DVVLTQTPLSLPVSLGDQASISCRVSQSLLHSNGYTYLHWYLQKPGQSPKLLIYKVSNRFSGVPDRFSGSGSGTDFTLKISRVEAEDLGVYFCSQTRHVPYTFGGGTKLEIK	0.033	0.043	0.044	0.0481	0.0435	0.052	1.31	1.29	0.0458		

Reference: patent US20110064740A1 (GlaxoSmithKline, published 2011)
